The chains are these.
T1: full-length schwannomin isoform 1 fused to the GAL4 binding domain (pGBT9NF2, residues 1-595) (Homo sapiens (Human), UniProt P35240 1-595)
T1 construct: Yeast two-hybrid bait; also called pGPT9NF2; GAL4-NF2
T1 sequence: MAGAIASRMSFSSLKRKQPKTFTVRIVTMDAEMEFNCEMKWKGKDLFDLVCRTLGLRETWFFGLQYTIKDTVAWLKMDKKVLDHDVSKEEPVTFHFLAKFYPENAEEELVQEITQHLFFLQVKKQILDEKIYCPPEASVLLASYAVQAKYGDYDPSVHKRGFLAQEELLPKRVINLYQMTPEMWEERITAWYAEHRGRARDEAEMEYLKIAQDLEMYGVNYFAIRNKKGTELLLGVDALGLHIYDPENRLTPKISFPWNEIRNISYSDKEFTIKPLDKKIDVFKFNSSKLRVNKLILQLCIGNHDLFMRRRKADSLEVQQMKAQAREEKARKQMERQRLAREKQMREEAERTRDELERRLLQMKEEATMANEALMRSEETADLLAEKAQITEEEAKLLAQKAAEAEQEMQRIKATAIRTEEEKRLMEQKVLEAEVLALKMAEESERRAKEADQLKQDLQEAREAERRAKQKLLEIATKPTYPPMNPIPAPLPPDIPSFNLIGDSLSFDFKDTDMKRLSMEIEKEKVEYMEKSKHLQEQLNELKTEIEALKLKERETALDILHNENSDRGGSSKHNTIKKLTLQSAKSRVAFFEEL

B1: MBP fused with β-spectrin residues 1885-1992 (other, UniProt Q01082 1885-1992, looked up, not shown: large carriers)
chain: RENEVLEAWKSLLDACESRRVRLVDTGDKFRFFSMVRDLMLWMEDVIRQIEAQEKPRDVSSVELLMNNHQGIKAEIDARNDSFTTCIELGKSLLARKHYASEEIKEKL
B2: GAL4 activation domain alone (pGADGH, no insert) (other, UniProt P04386 768-881, looked up)
chain: ANFNQSGNIADSSLSFTFTNSSNGPNLITTQTNSQALSQPIASSNVHDNFMNNEITASKIDDGNNSKPLSPGWTDQTAYNAFGITTGMFNTTTMDDVYNYLFDDEDTPPNPKKE
notes: Negative control
B3: glutathione-S-transferase fusion of the C-terminal domain of schwannomin isoform 1 (GSTNF2CL, schwannomin residues 469-595) (other)
chain: KQKLLEIATKPTYPPMNPIPAPLPPDIPSFNLIGDSLSFDFKDTDMKRLSMEIEKEKVEYMEKSKHLQEQLNELKTEIEALKLKERETALDILHNENSDRGGSSKHNTIKKLTLQSAKSRVAFFEEL
notes: Expressed in E. coli DH5α, purified on Sepharose 4B-glutathione; predicted 40.0 kDa; also called isoform 1 C-terminal domain GST fusion; not shown: Glutathione-S-transferase of pGEX-5X-1 and its linker
B4: CD44 (conserved cytoplasmic domain, last 70 residues) (other, UniProt P16070 673-742, looked up, not shown: large carriers)
chain: RRRCGQKKKLVINSGNGAVEDRKPSGLNGEASKSQEMVHLVNKESSETPDQFMTADETRNLQNVDMKIGV
notes: domain: conserved cytoplasmic domain, last 70 residues; Unrelated control protein in the two-hybrid filter assay
B5: MBP fused with β-spectrin residues 1885-1967 (other, UniProt Q01082 1885-1967, looked up, not shown: large carriers)
chain: RENEVLEAWKSLLDACESRRVRLVDTGDKFRFFSMVRDLMLWMEDVIRQIEAQEKPRDVSSVELLMNNHQGIKAEIDARNDSF

The target in assay [1] is B3. The assay can be described thus: pull-down on amylose resin, Western blot. How it is done:
(§1) Purified MBP or MBP fusions were incubated with fresh amylose resin for 5 minutes at room temperature and 2.5 minutes at 4° C. in column buffer (20 mM Tris-HCl, pH 7.4, 200 mM NaCl, 1 mM EDTA, 2 μg/ml aprotinin, 0.5 mg/ml Perfabloc SC), and washed three times with binding buffer (160 mM NaCl, 2.5 mM MgCl₂, 1.5 mM CaCl₂, […], 50 mM hepes, pH 7.4, 1% Triton X-100, 2 μg/ml aprotinin, and 0.5 mg/ml Pefabloc SC). Saturated amylose resin was incubated with equivalent amounts of GSTNF2CL or GSTNF2I2CL for 20 min at 4° C. and washed three times with binding buffer. The quantities were normalized by conducting dot blots of serial dilutions detected with anti-GST antibody (Pharmacia). Western blot analysis was conducted as described using affinity purified rabbit anti-spectrin (Sigma S1515), and anti-schwannomin (Ab5990, recognizes C-terminal domain) polyclonal antibodies (Huynh and Pulst (1996)).
(§2) Glutathione-S-transferase (GST) fusions were purified with the C-terminal domain of schwannomin isoform 1 (GSTNF2CL, schwannomin residues 469-595) or isoform 2 (GSTNF2I2CI, schwannomin residues 469-590). When the MBPSp-amylose resin was incubated with schwannomin-GST fusion proteins, the proteins eluted from the washed resin were recognized by an anti-schwannomin antibody (Ab5990). […]
(A western blot detects proteins with antibodies after separation by electrophoresis.)

Assay [2] addresses T1, full-length schwannomin isoform 1 fused …. The experiment in a line: yeast two-hybrid, liquid β-galactosidase assay, control.
Assay [3] addresses maltose binding protein (MBP) with no fusion protein (UniProt P0AEX9 27-392 = MBP). The assay can be described thus: pull-down on amylose resin, Western blot with Ab5990. How it is done: as §1, §2
In assay [4] the target is T1, full-length schwannomin isoform 1 fused …. The assay can be described thus: yeast two-hybrid, β-galactosidase filter assay. The source says: Double-transformant pGBT9NF2I2CL and pGAD10Sp is weakly positive for β-galactosidase in the filter assay; the trace blue color is not visible in the photo. Right: Histogram illustrating results of semiquantitative liquid assays for β-galactosidase activity (Poullet and Tamanio, Methods in Enzymol. 255:488-497 (1995)). Three controls are included: pGBT9NF1 and pGADGHRas, negative pGBT9NF2 and PGADGH, negative pGBT9 and pGAD105p. β-Galactosidase units=1000×[OD₄₂₀/(OD₆₀₀×times×culture volume)]. Bars show mean and standard deviation of three replicate clones from one transformation. Except for pGBT9NF2C and pGBT9NF2I2C, liquid assays for each construct were conducted at the same time, and for all constructs, the same clones were used in filter assays, and results were reproducible. FIG. 1(B) Control β-galactosidase filter assays of indicated double transformants showing high activity for a known positive interaction between NF1 and Ras (Poullet and Tamanio, (1995)), no detectable interaction between GAL4-NF2 and an unrelated protein, CD44 (conserved cytoplasmic domain, last 70 residues), and no detectable interaction between other negative controls. […]

The values that follow come from patent US20060199195A1 (CEDARS SINAI MEDICAL CENTER, published 2006).

As for B1, in assay [1], the binding result is on record as “no binding”.
As to B2, in assay [2], the binding result is on record as “no binding”.
As to B3, the binding result in assay [3] is given as “no binding”.
For B4, the binding result in assay [4] is listed as “no binding”.
Consider B5, for which the binding result in assay [1] was “no binding”.
